This note sets out measurements from patent US20090062197A1 (FULCRUM SP, published 2009).

The chains are these.
B1: SP1 variant Δ2-6 E72C (other)
chain: MKLVKHTLLTRFKDEITREQIDNYINDYTNLLDLIPSMKSFNWGTDLGMESAELNRGYTHAFESTFCSKSGLQEYLDSAALAAFAEGFLPTLSQRLVIDYFLY
B2: SP1 variant Δ2-6 L81C (other)
chain: MKLVKHTLLTRFKDEITREQIDNYINDYTNLLDLIPSMKSFNWGTDLGMESAELNRGYTHAFESTFESKSGLQEYCDSAALAAFAEGFLPTLSQRLVIDYFLY
B3: SP1 variant Cys2loop1RGd (Cys2 K18R Gly19) (other)
chain: MCATRTPKLVKHTLLTRFRGDEITREQIDNYINDYTNLLDLIPSMKSFNWGTDLGMESAELNRGYTHAFESTFESKSGLQEYLDSAALAAFAEGFLPTLSQRLVIDYFLY
B4: 6HSP1 (six histidine N-terminal tagged SP1) (other)
chain: MHHHHHHATRTPKLVKHTLLTRFKDEITREQIDNYINDYTNLLDLIPSMKSFNWGTDLGMESAELNRGYTHAFESTFESKSGLQEYLDSAALAAFAEGFLPTLSQRLVIDYFLY
notes: also called 6H2; SP1 6H
B5: SP1 variant Δ2-6 His2 (other)
chain: MHKLVKHTLLTRFKDEITREQIDNYINDYTNLLDLIPSMKSFNWGTDLGMESAELNRGYTHAFESTFESKSGLQEYLDSAALAAFAEGFLPTLSQRLVIDYFLY
B6: SP1 variant HH2 (other)
chain: MHHATRTPKLVKHTLLTRFKDEITREQIDNYINDYTNLLDLIPSMKSFNWGTDLGMESAELNRGYTHAFESTFESKSGLQEYLDSAALAAFAEGFLPTLSQRLVIDYFLY
B7: SP1 variant Δ2-6 I40C (other)
chain: MKLVKHTLLTRFKDEITREQIDNYINDYTNLLDLCPSMKSFNWGTDLGMESAELNRGYTHAFESTFESKSGLQEYLDSAALAAFAEGFLPTLSQRLVIDYFLY
B8: SP1 variant Δ2-7 Cys2 (other)
chain: MCLVKHTLLTRFKDEITREQIDNYINDYTNLLDLIPSMKSFNWGTDLGMESAELNRGYTHAFESTFESKSGLQEYLDSAALAAFAEGFLPTLSQRLVIDYFLY
B9: ΔNSP1 (N-terminal deleted SP1, deletion of amino acids 2-6) (other)
chain: MKLVKHTLLTRFKDEITREQIDNYINDYTNLLDLIPSMKSFNWGTDLGMESAELNRGYTHAFESTFESKSGLQEYLDSAALAAFAEGFLPTLSQRLVIDYFLY
notes: Recombinant variant, E. coli; also called Δ2-6; SP1 ΔN
B10: SP1 variant F106A 6XH2 (other)
chain: MHHHHHHATRTPKLVKHTLLTRFKDEITREQIDNYINDYTNLLDLIPSMKSFNWGTDLGMESAELNRGYTHAFESTFESKSGLQEYLDSAALAAFAEGFLPTLSQRLVIDYALY
B11: SP1 variant S73A S75A 6XH2 (other)
chain: MHHHHHHATRTPKLVKHTLLTRFKDEITREQIDNYINDYTNLLDLIPSMKSFNWGTDLGMESAELNRGYTHAFESTFEAKAGLQEYLDSAALAAFAEGFLPTLSQRLVIDYFLY
B12: SP1 variant D38A S75A 6XH2 (other)
chain: MHHHHHHATRTPKLVKHTLLTRFKDEITREQIDNYINDYTNLLALIPSMKSFNWGTDLGMESAELNRGYTHAFESTFESKAGLQEYLDSAALAAFAEGFLPTLSQRLVIDYFLY
B13: SP1 variant N31A T34A 6XH2 (other)
chain: MHHHHHHATRTPKLVKHTLLTRFKDEITREQIDNYIADYANLLDLIPSMKSFNWGTDLGMESAELNRGYTHAFESTFESKSGLQEYLDSAALAAFAEGFLPTLSQRLVIDYFLY
B14: CRGD SP1 (tumor recognition peptide CRGD inserted into the SP1 N-terminus) (other)
chain: MCRGDATRTPKLVKHTLLTRFKDEITREQIDNYINDYTNLLDLIPSMKSFNWGTDLGMESAELNRGYTHAFESTFESKSGLQEYLDSAALAAFAEGFLPTLSQRLVIDYFLY
notes: also called CRGD2
B15: RGDC SP1 (tumor recognition peptide RGDC inserted into the SP1 N-terminus) (other)
chain: MRGDCATRTPKLVKHTLLTRFKDEITREQIDNYINDYTNLLDLIPSMKSFNWGTDLGMESAELNRGYTHAFESTFESKSGLQEYLDSAALAAFAEGFLPTLSQRLVIDYFLY
notes: also called RGDC2
B16: SP1 (wild type, stress related SP1 protein from aspen) (other)
chain: MATRTPKLVKHTLLTRFKDEITREQIDNYINDYTNLLDLIPSMKSFNWGTDLGMESAELNRGYTHAFESTFESKSGLQEYLDSAALAAFAEGFLPTLSQRLVIDYFLY
notes: Full length SP1 without any additional tag, expressed in E. coli; it self-assembles into a dodecamer; also called WT; wild type SP1
B17: SP1 variant D27A (other)
chain: MATRTPKLVKHTLLTRFKDEITREQIANYINDYTNLLDLIPSMKSFNWGTDLGMESAELNRGYTHAFESTFESKSGLQEYLDSAALAAFAEGFLPTLSQRLVIDYFLY
B18: SP1 variant R23A (other)
chain: MATRTPKLVKHTLLTRFKDEITAEQIDNYINDYTNLLDLIPSMKSFNWGTDLGMESAELNRGYTHAFESTFESKSGLQEYLDSAALAAFAEGFLPTLSQRLVIDYFLY
B19: SP1 variant E68A (other)
chain: MATRTPKLVKHTLLTRFKDEITREQIDNYINDYTNLLDLIPSMKSFNWGTDLGMESAELNRGYTHAFASTFESKSGLQEYLDSAALAAFAEGFLPTLSQRLVIDYFLY
B20: SP1 variant D38A (other)
chain: MATRTPKLVKHTLLTRFKDEITREQIDNYINDYTNLLALIPSMKSFNWGTDLGMESAELNRGYTHAFESTFESKSGLQEYLDSAALAAFAEGFLPTLSQRLVIDYFLY
B21: SP1 variant I30A (other)
chain: MATRTPKLVKHTLLTRFKDEITREQIDNYANDYTNLLDLIPSMKSFNWGTDLGMESAELNRGYTHAFESTFESKSGLQEYLDSAALAAFAEGFLPTLSQRLVIDYFLY
B22: SP1 variant N31A (other)
chain: MATRTPKLVKHTLLTRFKDEITREQIDNYIADYTNLLDLIPSMKSFNWGTDLGMESAELNRGYTHAFESTFESKSGLQEYLDSAALAAFAEGFLPTLSQRLVIDYFLY
B23: SP1 variant T34A (other)
chain: MATRTPKLVKHTLLTRFKDEITREQIDNYINDYANLLDLIPSMKSFNWGTDLGMESAELNRGYTHAFESTFESKSGLQEYLDSAALAAFAEGFLPTLSQRLVIDYFLY
B24: SP1 variant Y108A (other)
chain: MATRTPKLVKHTLLTRFKDEITREQIDNYINDYTNLLDLIPSMKSFNWGTDLGMESAELNRGYTHAFESTFESKSGLQEYLDSAALAAFAEGFLPTLSQRLVIDYFLA

One data set concerns the molecule itself. Description: homo-oligomer complex formation after inclusion body refolding (footnote 10), SDS-PAGE, proteinase digestion of monomers.
Excerpt: Complex assembly was confirmed by eliminating the monomeric forms using proteinase digestion.
For the molecule B1, the binding result was “binds”.

A further data set concerns the molecule itself. The data set is described as follows: homo-oligomer complex formation after inclusion body refolding, SDS-PAGE, proteinase digestion of monomers.
Description: The pellet (FIG. 5a, lane 3) was discarded, and the supernatant was collected and dialyzed against buffer with 2 mM DTT for four days (FIG. 5a, lane 4).
Turning to B2, the binding result was “binds”.
Consider B3, for which the binding result is reported as “binds”.

The next data set concerns the target B9. The data set is described as follows: co-electro-elution of monomers, Ni-NTA pull-down, Proteinase K, SDS-PAGE.
Description: Protein samples were prepared in SDS-sample buffer with excess ratio of SDS to the sample, either boiled (b) for 5 min, or without boiling (nb). […] The hetero-oligomeric complex was isolated on Ni-NTA Agarose beads (lanes 6 and 7).
The denatured proteins were then separated in preparative SDS-PAGE, and visualized by Coomassie blue staining. The monomeric forms of two recombinant protein bands were excised. […] In order to enhance the surface/volume ratio, the gel slices were pulverized using a pestle and mortar in the presence of liquid nitrogen.
Take B4: the binding result is listed as “binds”.

A further data set concerns the molecule itself. Description: homo-oligomer complex formation, SDS-PAGE of unboiled samples.
As for B5, the binding result was “binds”.
Consider B6, for which the binding result is recorded as “binds”.
Still for that read-out and setting: the value for B7 was “binds”.
Turning to B8, the binding result is listed as “binds”.
Still for that read-out and setting: under B9 stands “binds”; under B10, “binds”; under B11, “binds”.
Turning to B12, the binding result is “binds”.
Same read-out and setting: under B4 stands “binds”; under B13, “binds”; under B14, “binds”.
Consider B15, for which the binding result is “binds”.
Same read-out and setting: under B16 stands “binds”.
Same read-out and setting: the value for B17 was “binds”.
As to B18, the binding result is recorded as “binds”.
Same read-out and setting: under B19 stands “binds”; under B20, “binds”.
In the case of B21, the binding result was “binds”.
As for B22, the binding result was “binds”.
Regarding B23, the binding result is “binds”.
On the same count and under the same terms, under B24 stands “binds”.
